Paper PMC4137058 (The Journal of Cell Biology, 2014)
Substitutions are numbered along the chain they refer to. Names may count otherwise.

T1: GST-tagged Sac1 (residues 2-460) (Saccharomyces cerevisiae, UniProt P32368 2-460)
T1 sequence (looked up): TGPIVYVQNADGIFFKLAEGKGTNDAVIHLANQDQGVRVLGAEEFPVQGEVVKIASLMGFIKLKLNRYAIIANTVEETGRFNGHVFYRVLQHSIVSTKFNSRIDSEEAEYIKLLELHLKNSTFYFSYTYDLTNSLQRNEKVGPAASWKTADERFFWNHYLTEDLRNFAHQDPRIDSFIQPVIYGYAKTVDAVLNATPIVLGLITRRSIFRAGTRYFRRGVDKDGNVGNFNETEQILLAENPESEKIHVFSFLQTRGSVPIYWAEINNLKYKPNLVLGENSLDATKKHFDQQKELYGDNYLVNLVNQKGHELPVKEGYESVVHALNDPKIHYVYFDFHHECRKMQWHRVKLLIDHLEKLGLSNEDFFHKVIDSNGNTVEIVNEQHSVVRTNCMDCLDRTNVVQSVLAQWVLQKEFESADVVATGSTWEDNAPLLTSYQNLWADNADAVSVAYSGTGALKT

B1: Vps74 (residues 46-345) (domain or fragment, Saccharomyces cerevisiae, UniProt Q06385 46-345, looked up)
chain: NKKIAYDPEESKLRDNINIPTLTLMEEVLLMGLRDREGYLSFWNDSISYALRGCIIIELALRGKIRILDDSARKRFDLSERLIEVIDSSKTGEVLLDETLQLMKNDEPLSISNWIDLLSGETWNLLKINYQLKQVRERLAKGLVDKGVLRTEMKNFFLFDMATHPIADASCKEAIKRRVLSVLVSRNMELSYNEYFPETTSFKIIRTLALICGSYGANVLENVLTTLEYEKRDKAISRAEEIMAQFSQYPFDLEKETELGVSVNLNKEVKEEIENNPGHDLQLEVIAGVFEVFSRMDMLL
B2: Vps74 (Y260S, N263S, E266S, Y274S, and D278S) (domain or fragment, Saccharomyces cerevisiae, UniProt Q06385 46-345, looked up)
chain: B1 chain with Y215S, N218S, E221S, Y229S, D233S

Target: T1, GST-tagged Sac1 (residues 2-460)
Assay: pull-down

Binder	binding result
B1	binds
B2	binds
